Measurements: the supplement of paper PMC10598134
± gives the standard deviation.

Experiment: collision cross section of modified peptide (TIMS, N2, iRT-aligned); higher = larger / more extended gas-phase ion
In short: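 Collision cross section values rest on the Mason-Schamp equation applied to calibrated, run-aligned mobility data from synthetic peptides. Mobility (1/K0) was calibrated with three reference ions and aligned per run to the median iRT peptide deviation, and 1–3 technical replicates of the most abundant feature per charge state were averaged. Data came from a timsTOF Pro/HT in dda-PASEF mode (nitrogen, ~2.4 mbar) after a 120-min nanoflow C18 gradient at 60 °C.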

[1] = charge state: 3, modification: Methyl (K)
[2] = charge state: 2, modification: Succinyl
[3] = charge state: 2, modification: hydroxyisobutyryl
[4] = charge state: 3, modification: hydroxyisobutyryl
[5] = charge state: 2, modification: Citrullination (R)
[6] = charge state: 3, modification: Citrullination (R)
[7] = charge state: 2, modification: Hydroxyproline
[8] = charge state: 3, modification: Hydroxyproline
[9] = charge state: 2, modification: Methyl (R)
[10] = charge state: 3, modification: Methyl (R)
[11] = charge state: 2, modification: Acetyl (K)
[12] = charge state: 2, modification: Biotin
[13] = charge state: 2, modification: Butyryl
[14] = charge state: 2, modification: Crotonyl
[15] = charge state: 2, modification: Dimethyl (K)
[16] = charge state: 2, modification: Formyl
[17] = charge state: 2, modification: Glutarylation
[18] = charge state: 2, modification: GlyGly (K)
[19] = charge state: 3, modification: GlyGly (K)
[20] = charge state: 2, modification: Methyl (K)
[21] = charge state: 2, modification: Propionyl
[22] = charge state: 3, modification: Trimethyl (K)
[23] = charge state: 2, modification: HexNAc (ST)
[24] = charge state: 3, modification: HexNAc (ST)

Substance: PGGEGPQCEKTTDVK [_PGGEGPQCEK(Methyl (K))TTDVK_]
- collision cross section [1]: 460.64 Å²

Substance: PGGEGPQCEKTTDVK [_PGGEGPQCEK(Succinyl)TTDVK_]
- collision cross section [2]: 437.41 ± 1.1 Å²

Substance: PGGEGPQCEKTTDVK [_PGGEGPQCEK(hydroxyisobutyryl)TTDVK_]
- collision cross section [3]: 425.58 ± 0.3 Å²
- collision cross section [4]: 464.88 Å²

Substance: PGGLGSSSLYGLGASRPR [_PGGLGSSSLYGLGASR(Citrullination (R))PR_]
- collision cross section [5]: 438.36 ± 0.2 Å²
- collision cross section [6]: 521.04 ± 1.9 Å²

Substance: PGLKGEQGEPGAPGIR [_PGLKGEQGEPGAP(Hydroxyproline)GIR_]
- collision cross section [7]: 410.74 ± 0.55 Å²
- collision cross section [8]: 508.4 ± 1.3 Å²

Substance: PGLQGPR [_P(Hydroxyproline)GLQGPR_]
- collision cross section [7]: 288.12 ± 3.8 Å²

Substance: PGNSGIR [_P(Hydroxyproline)GNSGIR_]
- collision cross section [7]: 280.46 ± 3.1 Å²

Substance: PGPKGEAGPTGPQGEPGVR [_P(Hydroxyproline)GPKGEAGPTGPQGEPGVR_]
- collision cross section [7]: 432.55 ± 0.34 Å²
- collision cross section [8]: 487.03 ± 3.2 Å²

Substance: PGPQPSAETTR [_P(Hydroxyproline)GPQPSAETTR_]
- collision cross section [8]: 412.85 Å²

Substance: PGPQPSAETTR [_PGP(Hydroxyproline)QPSAETTR_]
- collision cross section [7]: 345.87 ± 0.25 Å²

Substance: PGPRGQR [_P(Hydroxyproline)GPRGQR_]
- collision cross section [7]: 294.67 Å²

Substance: PGPVGPPGSGGLK [_PGPVGPP(Hydroxyproline)GSGGLK_]
- collision cross section [7]: 349.24 ± 3.9 Å²

Substance: PGSPGPPGSPGPR [_PGSP(Hydroxyproline)GPPGSPGPR_]
- collision cross section [8]: 422.04 ± 4.8 Å²

Substance: PGSPGPPGSPGPR [_PGSPGPPGSP(Hydroxyproline)GPR_]
- collision cross section [7]: 352.39 ± 1.1 Å²

Substance: PGTPAGYGRGR [_PGTPAGYGR(Citrullination (R))GR_]
- collision cross section [5]: 345.81 ± 4.8 Å²
- collision cross section [6]: 431.14 Å²

Substance: PGTPAGYGRGR [_PGTPAGYGR(Methyl (R))GR_]
- collision cross section [9]: 362.47 ± 6.7 Å²
- collision cross section [10]: 449.19 ± 8.3 Å²

Substance: PLPVALQTRLAK [_PLPVALQTR(Citrullination (R))LAK_]
- collision cross section [5]: 391.36 ± 0.54 Å²

Substance: PLPVALQTRLAK [_PLPVALQTR(Methyl (R))LAK_]
- collision cross section [9]: 400.79 ± 0.32 Å²
- collision cross section [10]: 474 ± 2.6 Å²

Substance: PLRAASPFR [_PLR(Citrullination (R))AASPFR_]
- collision cross section [5]: 334.99 ± 0.26 Å²
- collision cross section [6]: 442.41 Å²

Substance: PLRAASPFR [_PLR(Methyl (R))AASPFR_]
- collision cross section [9]: 351.73 ± 0.9 Å²
- collision cross section [10]: 447.48 ± 3.2 Å²

Substance: PPGFSPFR [_PP(Hydroxyproline)GFSPFR_]
- collision cross section [7]: 331.47 ± 1.3 Å²

Substance: PPGFSPFRSSR [_PP(Hydroxyproline)GFSPFRSSR_]
- collision cross section [7]: 367.16 Å²
- collision cross section [8]: 458.87 ± 0.35 Å²

Substance: PRGVISTPVIR [_PR(Citrullination (R))GVISTPVIR_]
- collision cross section [5]: 367.21 ± 0.24 Å²
- collision cross section [6]: 478.04 Å²

Substance: PRGVISTPVIR [_PR(Methyl (R))GVISTPVIR_]
- collision cross section [9]: 373.92 Å²
- collision cross section [10]: 447.15 ± 2.7 Å²

Substance: PRLPATGTFK [_PR(Citrullination (R))LPATGTFK_]
- collision cross section [5]: 351.67 ± 5.4 Å²

Substance: PRLPATGTFK [_PR(Methyl (R))LPATGTFK_]
- collision cross section [9]: 353.59 ± 0.84 Å²
- collision cross section [10]: 458.58 ± 3 Å²

Substance: PRTPTAPAVNLAGAR [_PR(Citrullination (R))TPTAPAVNLAGAR_]
- collision cross section [5]: 411.43 ± 0.98 Å²
- collision cross section [6]: 471.47 ± 0.76 Å²

Substance: PRTPTAPAVNLAGAR [_PR(Methyl (R))TPTAPAVNLAGAR_]
- collision cross section [10]: 486.43 ± 2.3 Å²

Substance: PSIHGGSGGRGVSVSSAR [_PSIHGGSGGR(Citrullination (R))GVSVSSAR_]
- collision cross section [6]: 486.3 ± 5 Å²

Substance: PSVGSQSNQAGQGKR [_PSVGSQSNQAGQGK(Acetyl (K))R_]
- collision cross section [11]: 409.31 ± 3.1 Å²
- collision cross section (charge state: 3, modification: Acetyl (K)): 465.77 ± 2.3 Å²

Substance: PSVGSQSNQAGQGKR [_PSVGSQSNQAGQGK(Biotin)R_]
- collision cross section [12]: 421.78 ± 0.67 Å²
- collision cross section (charge state: 3, modification: Biotin): 480.61 ± 0.34 Å²

Substance: PSVGSQSNQAGQGKR [_PSVGSQSNQAGQGK(Butyryl)R_]
- collision cross section [13]: 416.92 ± 1.1 Å²
- collision cross section (charge state: 3, modification: Butyryl): 475.14 ± 7.3 Å²

Substance: PSVGSQSNQAGQGKR [_PSVGSQSNQAGQGK(Crotonyl)R_]
- collision cross section [14]: 420.02 ± 0.41 Å²
- collision cross section (charge state: 3, modification: Crotonyl): 468.33 ± 1.6 Å²

Substance: PSVGSQSNQAGQGKR [_PSVGSQSNQAGQGK(Dimethyl (K))R_]
- collision cross section [15]: 425.54 ± 3 Å²
- collision cross section (charge state: 3, modification: Dimethyl (K)): 470.05 ± 1.2 Å²

Substance: PSVGSQSNQAGQGKR [_PSVGSQSNQAGQGK(Formyl)R_]
- collision cross section [16]: 402.96 ± 2 Å²
- collision cross section (charge state: 3, modification: Formyl): 470.1 ± 1.8 Å²

Substance: PSVGSQSNQAGQGKR [_PSVGSQSNQAGQGK(Gluratylation)R_]
- collision cross section [17]: 412.64 ± 1.7 Å²
- collision cross section (charge state: 3, modification: Glutarylation): 479.06 ± 9.1 Å²

Substance: PSVGSQSNQAGQGKR [_PSVGSQSNQAGQGK(GlyGly (K))R_]
- collision cross section [18]: 441.17 ± 1.6 Å²
- collision cross section [19]: 461.66 ± 1.1 Å²

Substance: PSVGSQSNQAGQGKR [_PSVGSQSNQAGQGK(Malonyl)R_]
- collision cross section (charge state: 2, modification: Malonyl): 406.87 ± 1.8 Å²
- collision cross section (charge state: 3, modification: Malonyl): 446.38 Å²

Substance: PSVGSQSNQAGQGKR [_PSVGSQSNQAGQGK(Methyl (K))R_]
- collision cross section [20]: 426.09 ± 2.3 Å²
- collision cross section [1]: 471.73 ± 2.8 Å²

Substance: PSVGSQSNQAGQGKR [_PSVGSQSNQAGQGK(Propionyl)R_]
- collision cross section [21]: 412.6 ± 0.64 Å²
- collision cross section (charge state: 3, modification: Propionyl): 473.2 ± 1.4 Å²

Substance: PSVGSQSNQAGQGKR [_PSVGSQSNQAGQGK(Succinyl)R_]
- collision cross section [2]: 415.39 ± 2 Å²
- collision cross section (charge state: 3, modification: Succinyl): 455.72 ± 2.4 Å²

Substance: PSVGSQSNQAGQGKR [_PSVGSQSNQAGQGK(Trimethyl (K))R_]
- collision cross section [22]: 463.16 ± 1.5 Å²

Substance: PSVGSQSNQAGQGKR [_PSVGSQSNQAGQGK(hydroxyisobutyryl)R_]
- collision cross section [3]: 418.62 ± 0.53 Å²
- collision cross section [4]: 477.11 ± 9.7 Å²

Substance: PSVSTKLISK [_PSVSTK(Acetyl (K))LISK_]
- collision cross section [11]: 351 ± 0.96 Å²

Substance: PSVSTKLISK [_PSVSTK(Biotin)LISK_]
- collision cross section [12]: 375.49 Å²

Substance: PSVSTKLISK [_PSVSTK(Butyryl)LISK_]
- collision cross section [13]: 357.77 ± 1.8 Å²

Substance: PSVSTKLISK [_PSVSTK(Crotonyl)LISK_]
- collision cross section [14]: 357.15 ± 0.8 Å²

Substance: PSVSTKLISK [_PSVSTK(Dimethyl (K))LISK_]
- collision cross section [15]: 362.9 ± 0.28 Å²

Substance: PSVSTKLISK [_PSVSTK(Formyl)LISK_]
- collision cross section [16]: 346.92 ± 1.1 Å²

Substance: PSVSTKLISK [_PSVSTK(Gluratylation)LISK_]
- collision cross section [17]: 361.01 ± 0.71 Å²

Substance: PSVSTKLISK [_PSVSTK(GlyGly (K))LISK_]
- collision cross section [18]: 370.29 ± 0.38 Å²
- collision cross section [19]: 434.33 ± 3 Å²

Substance: PSVSTKLISK [_PSVSTK(Methyl (K))LISK_]
- collision cross section [20]: 356.57 ± 0.35 Å²
- collision cross section [1]: 424.71 ± 5.3 Å²

Substance: PSVSTKLISK [_PSVSTK(Propionyl)LISK_]
- collision cross section [21]: 354.68 ± 0.33 Å²

Substance: PSVSTKLISK [_PSVSTK(Succinyl)LISK_]
- collision cross section [2]: 355.43 ± 0.73 Å²

Substance: PSVSTKLISK [_PSVSTK(Trimethyl (K))LISK_]
- collision cross section (charge state: 2, modification: Trimethyl (K)): 364.51 ± 0.61 Å²
- collision cross section [22]: 427.1 ± 2.4 Å²

Substance: PSVSTKLISK [_PSVSTK(hydroxyisobutyryl)LISK_]
- collision cross section [3]: 359.8 ± 1.9 Å²

Substance: QGNAVTLGDYYQGR [_QGNAVT(HexNAc (ST))LGDYYQGR_]
- collision cross section [23]: 432.99 ± 0.62 Å²

Substance: QQETAAAETETR [_QQETAAAETET(HexNAc (ST))R_]
- collision cross section [23]: 397.03 ± 0.67 Å²
- collision cross section [24]: 483.44 ± 0.18 Å²

Substance: RFGGPVHHQAQR [_R(Citrullination (R))FGGPVHHQAQR_]
- collision cross section [5]: 387.08 ± 0.89 Å²
- collision cross section [6]: 477.19 ± 0.94 Å²

Substance: RFGGPVHHQAQR [_R(Methyl (R))FGGPVHHQAQR_]
- collision cross section [10]: 496.52 ± 2.2 Å²

Substance: RFSPPSSSLQPGK [_RFS(HexNAc (ST))PPSSSLQPGK_]
- collision cross section [23]: 414.91 ± 1 Å²
- collision cross section [24]: 448.47 ± 9.4 Å²

Substance: RGATPPAPPR [_R(Citrullination (R))GATPPAPPR_]
- collision cross section [5]: 332.88 ± 2.4 Å²

Substance: RGATPPAPPR [_R(Methyl (R))GATPPAPPR_]
- collision cross section [9]: 338.68 ± 2.1 Å²
- collision cross section [10]: 463.88 ± 2.9 Å²

Substance: RGATPPAPPRR [_R(Citrullination (R))GATPPAPPRR_]
- collision cross section [6]: 462.57 ± 1.3 Å²

Substance: RGATPPAPPRR [_R(Methyl (R))GATPPAPPRR_]
- collision cross section [10]: 465.62 ± 0.37 Å²

Substance: RGFGFGGFAISAGK [_R(Citrullination (R))GFGFGGFAISAGK_]
- collision cross section [5]: 391.71 ± 0.23 Å²

Substance: RGFGFGGFAISAGK [_R(Methyl (R))GFGFGGFAISAGK_]
- collision cross section [10]: 488.52 ± 3.4 Å²
